Where two headings read alike, the source gives them in different places. Marks after values point to notes of the source that are not given here.
Columns and labels:
[1] = Activity of crude culture supernatants from bioreactor; format: biochemical; conditions: pNP-dodecanoate
[2] = Specific activity of purified enzymes (standard esterase assay); format: biochemical
Method: In summary, using different techniques for enzyme purification, pure enzyme preparations were obtained and tested for their activity towards a standard esterase substrate, pNP-palmitate. Enzymatic activities of the purified variants are summarized below:
(§1) Esterase activity was determined by monitoring the formation of para-nitrophenol (pNP) at 410 nm from various pNP-esters using a Beckman UV spectrophotometer (model DU 640). Substrates were completely dissolved in 2-propanol (8 mM) and were then added to 50 mM Tris/HCl buffer pH 8.0 to give a final substrate concentration of 0.8 mM. The reaction (1 mL) was started by adding an appropriate amount of enzyme. One enzyme unit (U) was defined as the amount of enzyme that produced 1 μmol of product (pNP) per min; specific activity was expressed as U/mg protein. A molar extinction coefficient of 15 mM^−1 cm^−1 was used for the calculation.

[3] = Enzyme substrate profiles, esterase assays; format: biochemical; conditions: highest activity towards a specific substrate set to 100%
Method: as §1

Temperature optimum = format: biochemical; conditions: for Relative activity at temperature: highest activity set to 100%
Method: For estimation of the temperature optimum, buffer containing pNP-palmitate (see esterase assay in Example 20.1) was pre-incubated to reach the desired temperature, enzyme was then added, and the formation of pNP was assayed. For this experiment, Tris/HCl buffer was replaced with sodium phosphate buffer (50 mM, pH 8.0) to avoid a pH shift at the different temperatures.

[4] = Enzymatic activity in the presence of organic solvents; format: biochemical; conditions: buffer only = 100%
Method: Enzyme activity in various organic solvents was studied over a concentration range of 1-30% at room temperature. pNP-palmitate was completely dissolved in 2-propanol (8 mM) and then added to 50 mM Tris/HCl buffer pH 8.0 containing up to 30% organic solvent to give a final substrate concentration of 0.8 mM. The reaction was started by addition of enzyme and the formation of pNP was assayed as described above in Example 20.1.

pH dependence of enzymes = format: biochemical; conditions: for Relative activity (%): highest activity = 100%
Method: The influence of different pH values (from 5.5 to 11) on the activities of the purified enzymes was examined in three buffer systems (sodium acetate, sodium phosphate, and Tris-HCl) at room temperature using pNP-palmitate (see esterase assay in Example 20.1) as a substrate at a final substrate concentration of 0.8 mM.

[5] = Stability in the presence of hydrogen peroxide; format: physicochemical
Method: as §1
Purified cutinases were incubated at room temperature in the presence of 0, 30, 100, 300, 1500, and 3000 ppm of hydrogen peroxide. Residual enzyme activity was assayed (see Example 20.1) after 1, 2, 3, and 7 days of incubation.

[6] = format: biochemical, Petromyces albertensis; conditions: for Residual ochratoxin A (%): 5 ppm Ochratoxin A, 37° C., relative to incubation without enzyme
Method: The enzymes purified in Example 18 were tested for their ability to degrade the mycotoxin Ochratoxin A. In general, the mycotoxin was incubated with different concentrations of the enzyme, and the remaining mycotoxin concentration, as well the respective degradation products, were monitored by LC-MS over time (where possible/applicable).
Reactions were performed in 1 mL volumes in glass HPLC vials comprising the mycotoxin to be analyzed and the enzyme to be tested. For Ochratoxin A (Petromyces albertensis, 01877 Sigma), 50 μL of a 100 ppm stock solution in methanol (final concentration of 5 ppm) was added to 910 μL of distilled water and 40 μL of the enzyme to be tested. In control reactions, the volume of enzyme was substituted with distilled water. The reactions were incubated in an Eppendorf thermomixer at 37° C. with shaking at 750 rpm. 100 μL samples were withdrawn at 1, 4 and 24 h for chromatographic analysis.
Mycotoxin analysis was carried out using a Shimadzu LCMS-2020 equipped with a UV/vis detector. Chromatographic separation of 10 μL injected sample was carried out at 30° C. on a Kinetex 2.6 μm XB-C18 column 100 Å (50×2.1 mm) using a binary gradient. For Ochratoxin A, eluent A consisted of water and eluent B consisted of acetonitrile and the UV detection wavelength was 360 nm.
The five enzymes tested were screened for their ability to degrade 5 ppm (5,000 ppb) Ochratoxin A at 37° C.

B1: Am-Kr: chimeric variant: AmCUT fused to the T/P-rich linker domain and polymer binding domain of KrCUT, SEQ ID NO: 27 (protein)
chain: ACSDLEIVFARGSGEAPGLGITGTPLVSDVKSALSSASVSSYAVDYAASYDQTSAGPGATDMSNHIKSTAAACPDTKFAIGGYSQGASVTDIAIGIRTYLGTGQTIPTELAPRVVAVIAFGNPLGLYGQTIKTASPTYGPKSLEFCNRGDNVCGGTGTGPGYGHLSYARDGSVDQAAAFIAKQYNASAGTPTTPTPTPTPTPVPTTCVRDSTRDHVAADRAVSLYGRAYARGSRDSLGATSSYNVVSLQQVEGGWRLVTAC
modifications: YebF carrier; Am-Kr variant
activity of crude culture supernatant [1]: 0.5 U/mL
Enzymatic activity of the purified variant ([2]; pNP-palmitate): 174 ± 11 U/mg
Spec. Act. (U/mg) ([2]; towards pNP-palmitate (standard assay)): 174 ± 11 U/mg
Relative activity, pNP-acetate (C2) [3]: 9 ± 1%
Relative activity, pNP-butyrate (C4) [3]: 75 ± 8%
Relative activity, pNP-caprylate (C8) [3]: 100* %
Relative activity, pNP-decanoate (C10) [3]: 72 ± 2%
Relative activity, pNP-myristate (C14) [3]: 46 ± 8%
Relative activity, pNP-palmitate (C16) [3]: 49 ± 6%
Temp. opt. (° C.) (Temperature optimum): 45 °C
Relative activity at temperature (Temperature optimum; 20 ° C.): 50 ± 2%
Relative activity at temperature (Temperature optimum; 25 ° C.): 61 ± 2%
Relative activity at temperature (Temperature optimum; 30 ° C.): 69 ± 2%
Relative activity at temperature (Temperature optimum; 35 ° C.): 78 ± 1%
Relative activity at temperature (Temperature optimum; 40 ° C.): 87 ± 2%
Relative activity at temperature (Temperature optimum; 45 ° C.): 100* %
Relative activity at temperature (Temperature optimum; 50 ° C.): 81 ± 10%
Relative activity at temperature (Temperature optimum; 55 ° C.): 37 ± 5%
Relative activity at temperature (Temperature optimum; 60 ° C.): 9 ± 1%
Relative enzymatic activity (%) ([4]; 2-Propanol 5% (v/v)): 70 ± 10%
Relative enzymatic activity (%) ([4]; 2-Propanol 10% (v/v)): 23 ± 2%
Relative enzymatic activity (%) ([4]; Acetone 1% (v/v)): 118 ± 1%
Relative enzymatic activity (%) ([4]; Acetone 5% (v/v)): 90 ± 14%
Relative enzymatic activity (%) ([4]; Acetone 10% (v/v)): 74 ± 7%
Relative enzymatic activity (%) ([4]; Dimethyl sulfoxide (DMSO) 10% (v/v)): 114 ± 2%
Relative enzymatic activity (%) ([4]; Dimethyl sulfoxide (DMSO) 20% (v/v)): 90 ± 8%
Relative enzymatic activity (%) ([4]; Dimethyl sulfoxide (DMSO) 30% (v/v)): 60 ± 5%
Relative enzymatic activity (%) ([4]; Dimethylformamide (DMF) 5% (v/v)): 120 ± 11%
Relative enzymatic activity (%) ([4]; Methanol 10% (v/v)): 87 ± 10%
Relative enzymatic activity (%) ([4]; Methanol 20% (v/v)): 60 ± 13%
pH opt. (pH dependence of enzymes): 9.5
Relative activity (%) (pH dependence of enzymes; pH 6.5, sodium phosphate buffer): 23 ± 2%
Relative activity (%) (pH dependence of enzymes; pH 7.0, sodium phosphate buffer): 46 ± 3%
Relative activity (%) (pH dependence of enzymes; pH 7.5, sodium phosphate buffer): 54 ± 3%
Relative activity (%) (pH dependence of enzymes; pH 8.0, Tris/HCl): 84 ± 2%
Relative activity (%) (pH dependence of enzymes; pH 8.5, Tris/HCl): 88 ± 9%
Relative activity (%) (pH dependence of enzymes; pH 9.0, Tris/HCl): 91 ± 5%
Relative activity (%) (pH dependence of enzymes; pH 9.5, Tris/HCl): 100* %
Relative activity (%) (pH dependence of enzymes; pH 10, Tris/HCl): 47 ± 4%
Relative activity (%) (pH dependence of enzymes; pH 10.5, Tris/HCl): 10 ± 1%
Relative activity (%) after exposure to hydrogen peroxide ([5]; H2O2 30 ppm, Day 0): 92 ± 3%
Relative activity (%) after exposure to hydrogen peroxide ([5]; H2O2 30 ppm, Day 1): 90 ± 15%
Relative activity (%) after exposure to hydrogen peroxide ([5]; H2O2 30 ppm, Day 2): 82 ± 8%
Relative activity (%) after exposure to hydrogen peroxide ([5]; H2O2 30 ppm, Day 3): 71 ± 4%
Relative activity (%) after exposure to hydrogen peroxide ([5]; H2O2 30 ppm, Day 7): 63 ± 5%
Relative activity (%) after exposure to hydrogen peroxide ([5]; H2O2 100 ppm, Day 0): 101 ± 3%
Relative activity (%) after exposure to hydrogen peroxide ([5]; H2O2 100 ppm, Day 1): 97 ± 5%
Relative activity (%) after exposure to hydrogen peroxide ([5]; H2O2 100 ppm, Day 2): 83 ± 2%
Relative activity (%) after exposure to hydrogen peroxide ([5]; H2O2 100 ppm, Day 3): 73 ± 5%
Relative activity (%) after exposure to hydrogen peroxide ([5]; H2O2 100 ppm, Day 7): 69 ± 4%
Relative activity (%) after exposure to hydrogen peroxide ([5]; H2O2 300 ppm, Day 0): 100 ± 9%
Relative activity (%) after exposure to hydrogen peroxide ([5]; H2O2 300 ppm, Day 1): 88 ± 5%
Relative activity (%) after exposure to hydrogen peroxide ([5]; H2O2 300 ppm, Day 2): 83 ± 2%
Relative activity (%) after exposure to hydrogen peroxide ([5]; H2O2 300 ppm, Day 3): 72 ± 10%
Relative activity (%) after exposure to hydrogen peroxide ([5]; H2O2 300 ppm, Day 7): 61 ± 4%
Relative activity (%) after exposure to hydrogen peroxide ([5]; H2O2 1,500 ppm, Day 0): 91 ± 8%
Relative activity (%) after exposure to hydrogen peroxide ([5]; H2O2 1,500 ppm, Day 1): 97 ± 9%
Relative activity (%) after exposure to hydrogen peroxide ([5]; H2O2 1,500 ppm, Day 2): 75 ± 15%
Relative activity (%) after exposure to hydrogen peroxide ([5]; H2O2 1,500 ppm, Day 3): 73 ± 3%
Relative activity (%) after exposure to hydrogen peroxide ([5]; H2O2 1,500 ppm, Day 7): 60 ± 6%
Relative activity (%) after exposure to hydrogen peroxide ([5]; H2O2 3,000 ppm, Day 0): 86 ± 6%
Relative activity (%) after exposure to hydrogen peroxide ([5]; H2O2 3,000 ppm, Day 1): 68 ± 9%
Relative activity (%) after exposure to hydrogen peroxide ([5]; H2O2 3,000 ppm, Day 2): 63 ± 4%
Relative activity (%) after exposure to hydrogen peroxide ([5]; H2O2 3,000 ppm, Day 3): 67 ± 2%
Relative activity (%) after exposure to hydrogen peroxide ([5]; H2O2 3,000 ppm, Day 7): 55 ± 3%
Relative activity (%) after exposure to hydrogen peroxide ([5]; H2O2 3,000 ppm, Day 7, listed as Am—Kr): 55%
Residual ochratoxin A (%) ([6]; 1 h): 6%
Residual ochratoxin A (%) ([6]; 4 h): 0%
Residual ochratoxin A (%) ([6]; 24 h): 0%
Ochratoxin A degraded ([6]; after 4 hours): 100%
Ochratoxin A Degradation per U and h ([6]; per 1 U of enzyme (pNP standard test) and hour at 37° C.): 3 µmol

Reference: patent US10227575B2, “Multi-domain enzymes having cutinase activity, compositions comprising same and uses thereof” (OZYMES, priority 2015, dated 2019)
